From publication PMC9729196, “An in silico method to assess antibody fragment polyreactivity” (Nature Communications, 2022)
Where two headings read alike, the source gives them in different places.

T1: wild-type human FLAG-AT1R (angiotensin II type 1 receptor) (human, UniProt P30556 1-359)
T1 chain: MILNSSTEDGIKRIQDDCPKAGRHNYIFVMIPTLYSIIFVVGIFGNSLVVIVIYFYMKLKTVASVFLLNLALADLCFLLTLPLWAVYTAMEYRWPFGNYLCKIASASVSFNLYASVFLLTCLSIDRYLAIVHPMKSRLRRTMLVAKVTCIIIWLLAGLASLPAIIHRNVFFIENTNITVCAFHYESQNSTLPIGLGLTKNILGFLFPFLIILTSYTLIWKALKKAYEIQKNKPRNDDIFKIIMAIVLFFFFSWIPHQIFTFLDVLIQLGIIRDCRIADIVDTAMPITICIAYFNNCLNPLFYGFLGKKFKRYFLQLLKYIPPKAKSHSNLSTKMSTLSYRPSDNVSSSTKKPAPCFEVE


Legend:
[1] = target: T1, wild-type human FLAG-AT1R (angiotensin …)
[2] = target: T2, wild-type human FLAG-AT1R (angiotensin II type 1 receptor) (Homo sapiens, UniProt P30556); experiment: radioligand binding; competition of nanobody with 2 nM [3H]-olmesartan on membranes of FLAG-AT1R cells; 50 mM Tris pH 7.4, 12.5 mM MgCl2, 150 mM NaCl, 0.2% BSA, 90 min, room temperature; Ki from a one-site competition model; conditions: one partner purified
T2 construct: angiotensin II type 1 receptor (AT1R), human, wild type; Cells were gated with the M1 anti-FLAG antibody; also called angiotensin II type I receptor; source: Expi293F TetR cells, stably transfected (pCDNA Zeo-TetO), induced with doxycycline; on cells, or in cell membranes prepared from them

[3] = target: T1, wild-type human FLAG-AT1R (angiotensin …); experiment: FACS
[4] = target: T1, wild-type human FLAG-AT1R (angiotensin …); experiment: [3H]-olmesartan competition, membranes
[5] = target: T2, wild-type human FLAG-AT1R (angiotensin …); experiment: flow cytometry on cells; Expi293F cells expressing FLAG-AT1R stained with 20 nM nanobody (C-terminal V5), 1 h, 4 °C, 20 mM Hepes pH 7.4, 150 mM NaCl, 0.1% BSA; detected with Alexa 647 anti-V5; gated for M1 anti-FLAG-positive singlets; conditions: one partner purified
[6] = target: insulin (Homo sapiens (assumed; ), UniProt P01308)
Sequence of insulin (F8WCM5 25-54, chain 1 of 2): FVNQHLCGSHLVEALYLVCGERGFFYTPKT
Sequence of insulin (P01308 90-110, chain 2 of 2): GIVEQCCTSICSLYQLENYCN

Ki [1] [nM]	Kd [3] [nM]	Binder	further results
79.4	54	AT118i4h32 G26D^27 T57I^65 (VHH, as the chain of m1 with the two stated substitutions; its own crystal structure is one of PDB 7T83 and 7T84 (crystallised construct: N-terminal Met-Ala, C-terminal His tag); the superscripts are IMGT numbers; also called G26D^27 T57I^65 variant; source: E. coli BL21(DE3), pET26b, purified (Protein A, Ni-NTA); not shown: V5, C-terminal, kept; His6, C-terminal, kept) VHH: EVQLVESGGGLVQPGGSLRLSCAASDYIYRRYRMGWYRQAPGKGREFVAAISGGSSINYADSVKGRFTISRDNSKNTVYLQMNSLRAEDTAVYYCAAYRIVSDPRVYWGQGTQVTVSS	binding result [2]: binds
–	58.3	AT118i4h32 (VHH, coordinates of the AT118i4h32 structures are deposited as PDB 7T83 and 7T84 (the crystallised construct has an N-terminal Met-Ala and a C-terminal His tag); humanised form of AT118 (eleven substitutions towards human VH3-23); Nanobody antagonist of AT1R from a synthetic library, humanised; also called WT AT118i4h32; wild-type nanobody; source: E. coli BL21(DE3), pET26b, purified (Protein A, …)) VHH: EVQLVESGGGLVQPGGSLRLSCAASGYIYRRYRMGWYRQAPGKGREFVAAISGGSSTNYADSVKGRFTISRDNSKNTVYLQMNSLRAEDTAVYYCAAYRIVSDPRVYWGQGTQVTVSS	Ki [4]: 72.4 nM; binding result [5]: binds
64.6	–	AT118i4h32 T57I^65 (VHH) VHH: EVQLVESGGGLVQPGGSLRLSCAASGYIYRRYRMGWYRQAPGKGREFVAAISGGSSINYADSVKGRFTISRDNSKNTVYLQMNSLRAEDTAVYYCAAYRIVSDPRVYWGQGTQVTVSS	–
–	–	AT118i4h32 T57D^65 (VHH, as the chain of m1 with the stated substitution; the superscript is the IMGT number; also called T57D^65 substitution; source: E. coli BL21(DE3), pET26b, purified (Protein A, Ni-NTA); not shown: V5, C-terminal, kept; His6, C-terminal, kept) VHH: EVQLVESGGGLVQPGGSLRLSCAASGYIYRRYRMGWYRQAPGKGREFVAAISGGSSDNYADSVKGRFTISRDNSKNTVYLQMNSLRAEDTAVYYCAAYRIVSDPRVYWGQGTQVTVSS	fold decrease of binding against the wild type [5]: 2 fold
70.8	–	AT118i4h32 G26D^27 (VHH) VHH: EVQLVESGGGLVQPGGSLRLSCAASDYIYRRYRMGWYRQAPGKGREFVAAISGGSSTNYADSVKGRFTISRDNSKNTVYLQMNSLRAEDTAVYYCAAYRIVSDPRVYWGQGTQVTVSS	–
–	–	F10' (VHH) VHH: QVQLVESGGGLVQAGGSLRLSCAASGSTFWWYAMGWYRQAPGKERELVATISRGGSTNYADSVKGRFTISRDNAKNTVYLQMNSLKPEDTAVYYCARKTRDIRLDYWGQGTQVTVSS	binding result [6]: binds
